Data on 1 molecule can be found in patent US20260234228A1 (GENOME, published 2026).

This test deals with T1, mouse CNTN4 overexpressed on 293F cells (mouse, UniProt Q69Z26 19-1000).
T1 construct: whole, on cells; Overexpressed on 293F cells; the construct is not described; also called Mouse CNTN4 cell; mouse antigen-overexpressing 293F cells
T1 sequence (looked up): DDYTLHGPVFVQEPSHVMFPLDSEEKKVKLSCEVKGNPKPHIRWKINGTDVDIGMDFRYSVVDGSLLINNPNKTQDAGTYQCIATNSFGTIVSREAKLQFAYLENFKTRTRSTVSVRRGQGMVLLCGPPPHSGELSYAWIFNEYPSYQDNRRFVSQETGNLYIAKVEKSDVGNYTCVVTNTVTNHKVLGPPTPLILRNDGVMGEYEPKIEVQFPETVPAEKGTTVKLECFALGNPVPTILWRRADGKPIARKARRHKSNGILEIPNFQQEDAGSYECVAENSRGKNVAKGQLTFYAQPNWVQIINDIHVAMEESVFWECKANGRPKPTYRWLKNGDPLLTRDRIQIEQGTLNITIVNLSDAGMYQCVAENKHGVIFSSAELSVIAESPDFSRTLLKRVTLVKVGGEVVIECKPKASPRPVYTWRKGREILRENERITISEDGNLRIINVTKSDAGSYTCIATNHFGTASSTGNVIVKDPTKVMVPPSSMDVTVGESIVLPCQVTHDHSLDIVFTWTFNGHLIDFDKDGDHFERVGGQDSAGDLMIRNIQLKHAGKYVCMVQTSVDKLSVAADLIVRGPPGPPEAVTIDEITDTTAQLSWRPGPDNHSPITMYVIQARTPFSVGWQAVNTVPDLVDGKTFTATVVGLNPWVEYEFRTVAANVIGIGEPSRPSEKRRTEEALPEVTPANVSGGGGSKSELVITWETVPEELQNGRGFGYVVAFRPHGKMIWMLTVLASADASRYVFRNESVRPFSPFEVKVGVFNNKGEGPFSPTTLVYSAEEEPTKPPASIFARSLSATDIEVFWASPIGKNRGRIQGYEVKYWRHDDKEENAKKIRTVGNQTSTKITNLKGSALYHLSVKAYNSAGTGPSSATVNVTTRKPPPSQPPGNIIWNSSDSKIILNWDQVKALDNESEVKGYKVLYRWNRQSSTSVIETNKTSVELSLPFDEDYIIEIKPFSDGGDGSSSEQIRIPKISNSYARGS
As to the kind of experiment: FACS, scFv periplasm on mouse CNTN4-overexpressing 293F cells, PE anti-His detection. (In general: A flow cytometer gives signals particle by particle.)

B1: A104 scFv (scFv, V domains shown)
VH: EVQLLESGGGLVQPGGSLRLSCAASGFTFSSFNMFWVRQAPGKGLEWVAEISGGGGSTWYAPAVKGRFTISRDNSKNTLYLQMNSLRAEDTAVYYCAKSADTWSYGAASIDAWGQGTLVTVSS
VL: ELTQDPAVSVALGQTVRITCSGSSGSYGWYQQKPGQAPVLVIYDNTNRPSGIPDRFSGSSSGNTASLTITGAQAEDEADYYCGGYDGSTDVFGGGTKLTVL
Turning to B1, the EC50 (commonly the concentration that produces a half-maximal response) stood at 29.4 nM and the “Top MFI” value was 2050 MFI.
